Paper PMC8934645, “Discovery of potent and versatile CRISPR–Cas9 inhibitors engineered for chemically controllable genome editing”

Tests used:
St3Cas9;AcrIIA24 = St3Cas9;AcrIIA24 (Streptococcus …, UniProt Q03JI6;A0A3G8FCC3 1-1388;1-104, |); experiment: EMSA; sgRNA; AcrIIA24 added before DNA; supershift; 20 mM Tris-HCl pH 7.6, 150 mM KCl, 5 mM EDTA (Results text: 10 mM EDTA), 5 mM MgCl2, 1 mM DTT, 5% glycerol, 50 ug/ml heparin, 0.01% Tween 20, 100 ug/ml BSA; RNP and DNA steps 37 C 10 min, Acr RT 20 min; RNP 256 nM, DNA 20 nM; RNA EMSA 256 nM Cas9 and sgRNA, 37 C; conditions: protein: recombinant;recombinant; tags: His (pET28a, Ni-NTA);tag removed by TEV; copies: 1;1; label: Cy5 on target strand; blunt
St1Cas9;AcrIIA30 = St1Cas9;AcrIIA30 (Streptococcus …, UniProt Q03LF7; 1-1121;, |); experiment: EMSA; sgRNA; AcrIIA30 added after DNA; supershift; 20 mM Tris-HCl pH 7.6, 150 mM KCl, 5 mM EDTA (Results text: 10 mM EDTA), 5 mM MgCl2, 1 mM DTT, 5% glycerol, 50 ug/ml heparin, 0.01% Tween 20, 100 ug/ml BSA; RNP and DNA steps 37 C 10 min, Acr RT 20 min; RNP 256 nM, DNA 20 nM; RNA EMSA 256 nM Cas9 and sgRNA, 37 C; conditions: protein: recombinant;recombinant; tags: His (pET28a, Ni-NTA);tag removed by TEV; copies: 1;1; label: Cy5 on target strand; blunt
SpyCas9;AcrIIA32.1 = SpyCas9;AcrIIA32.1 (Streptococcus pyogenes;Streptococcus …, UniProt Q99ZW2; 1-1368;, |); experiment: EMSA; sgRNA; AcrIIA32.1 added after DNA; supershift; 20 mM Tris-HCl pH 7.6, 150 mM KCl, 5 mM EDTA (Results text: 10 mM EDTA), 5 mM MgCl2, 1 mM DTT, 5% glycerol, 50 ug/ml heparin, 0.01% Tween 20, 100 ug/ml BSA; RNP and DNA steps 37 C 10 min, Acr RT 20 min; RNP 256 nM, DNA 20 nM; RNA EMSA 256 nM Cas9 and sgRNA, 37 C; conditions: protein: recombinant;recombinant; tags: ;tag removed by TEV; label: Cy5 on target strand; blunt

B1: Substrate DNA, St3Cas9 sgRNA target (dsDNA)
DNA 1: CTCACGGGTGTCATTCTCCACTCAGTGGCAGACCTTGCTCCCGCGAGGAGTAGTCG
DNA 2: CGACTACTCCTCGCGGGAGCAAGGTCTGCCACTGAGTGGAGAATGACACCCGTGAG
B1: binds (St3Cas9;AcrIIA24).

B2: Substrate DNA, St1Cas9 sgRNA target (dsDNA)
DNA 1: B1 DNA 1
DNA 2: B1 DNA 2
B2: binds (St1Cas9;AcrIIA30).

B3: Substrate DNA, SpyCas9 sgRNA target (dsDNA)
DNA 1: B1 DNA 1
DNA 2: B1 DNA 2
B3: binds (SpyCas9;AcrIIA32.1).
